Assay results as given in US20240382513A1.

Target: transferrin receptor (on Hepa 1-6 cells; in tissues of C57BL/6 wild-type mice) (mouse) (UniProt Q62351)
Test: cell-based or functional assay

UniProt Q62351, sequence (Q62351 whole entry): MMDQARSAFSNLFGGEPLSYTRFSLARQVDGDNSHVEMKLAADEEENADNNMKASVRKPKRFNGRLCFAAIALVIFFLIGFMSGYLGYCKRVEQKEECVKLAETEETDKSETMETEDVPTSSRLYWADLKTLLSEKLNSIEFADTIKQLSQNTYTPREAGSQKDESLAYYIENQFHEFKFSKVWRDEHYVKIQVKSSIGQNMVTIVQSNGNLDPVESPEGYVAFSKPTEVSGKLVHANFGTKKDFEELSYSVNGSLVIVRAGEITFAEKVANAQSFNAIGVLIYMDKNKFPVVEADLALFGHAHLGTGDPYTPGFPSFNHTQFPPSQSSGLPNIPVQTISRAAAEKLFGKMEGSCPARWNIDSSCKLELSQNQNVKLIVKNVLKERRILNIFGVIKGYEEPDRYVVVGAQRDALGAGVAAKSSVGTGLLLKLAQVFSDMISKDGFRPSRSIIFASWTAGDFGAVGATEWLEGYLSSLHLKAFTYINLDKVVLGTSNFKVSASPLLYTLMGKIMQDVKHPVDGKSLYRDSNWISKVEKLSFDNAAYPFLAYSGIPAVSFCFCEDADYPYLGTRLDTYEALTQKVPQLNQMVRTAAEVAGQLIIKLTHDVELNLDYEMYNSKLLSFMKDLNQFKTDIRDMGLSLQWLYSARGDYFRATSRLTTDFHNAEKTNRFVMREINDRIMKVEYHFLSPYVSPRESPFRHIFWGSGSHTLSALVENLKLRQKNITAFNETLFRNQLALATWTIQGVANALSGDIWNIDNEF

In the case of “antiTfR-siHPRT complex: RI7 217 anti-TfR1 Fab (DTX-A-002) covalently linked via a non-cleavable GMBS linker to the HPRT siRNA (siHPRT)”, the HPRT expression in gastrocnemius of C57BL/6 mice, three days after a single i.v. dose (2 mg/kg of RNA) is reported as 31%, the HPRT expression in heart of C57BL/6 mice, three days after a single i.v. dose (2 mg/kg of RNA) is reported as 30% and the decrease in HPRT expression in Hepa 1-6 cells after 72 hour incubation with 100 nM complex is reported as 50%.
